Laboratory results taken from the DeepSol protein solubility set.

Experiment: soluble on expression in E. coli; label from the status in PepcDB or PDB records

| Sequence | soluble on expression in E. coli |
| --- | --- |
| MSTMSSPIYIQIHNQIKQAIEAGRWAVGDRIPSERELATQFDVSRMTLRQAIQTLVDEGILERRVGAGTFVANQKVQEKMSGVTSFTDLMLAQGKVPSSKTISYHVTSPSLSESEKLALGANEQVLRMERIRYGDDVPICFEVATVPERLVKQFTKDEITSSLYRTLEEKASLVPGKAQQTVSAMSASERIAEYLSVRRGDALLRLRQISYLQTGEPFEYVRTQYVGNRFEFYLEK | not soluble |
| MAHHHHHHMHVKHRATGRVVATLPFEPMPTLEDVSDAFIKAESTTATTHTGDLTVPTAYDNAEEDVDGAEEGETMYAVVYDLVTPTAPGDNGDSELAAAVTAAGLLENLPADADGTCNIGETMRKLVELGAAELLTAEPLSVSQARREYNPPEAPGLLRRIVYPASQYSPYRLDRDPLHTDKLSFYRSSTVTASVPSGPPPTSCTGLHALPVWDYGEGGLYTSYFDSYDLSCPMRGPFVRPSAAGKAALVMPLSDEEHHRIFGA | soluble |
| MSELRVISLDEVSKHNWEDADQSCWIVISGKVYDVTKFLNEHPGGEEVITQLAGKDATVGFLDVGHSKDAIEMANEYLIGQLPESDVPKVETAAAKPSKNEKSSSLLNDFTEIMTSPTWTNFLIPTTMGLVIYAVYKCMFN | not soluble |
| ATADPGVRAMDYQQATDVVIARGLSQRGVPFSWAGGGINGPTRGTGTGANTVGFDASGLMQYAYAGAGIKLPRSSGAMYRVGQKILPQQARKGDLIFYGPEGTQSVAMYLGNNQMLEVGDVVQVSPVRTAGMAPYMVRVLGT | soluble |
| MSAKDFLVELGTEELPPKALNSLGEAFLSGIEKGLKAAGLSYAAARFYAAPRRLAVLVEQLAVQQPDRTVNLDGPPLQAAFDASGNPTQAALGFAKKCGVDLQQIDKSGPKLRFIQTIAGQPAAGLLPGIVEASLNELPIPKRMRWAARREEFVRPTQWLVMLFGDDVVECEILAQKAGRESRGHRFHNPDNVRISSPAAYLEDLRGAHVLADFAERRELIAKRVAELAAEQQGSAIVPPSLLDEVTALVEWPVPLVCSFEERFLEVPQEALITTMQDNQKYFCLLDANGKLLPRFITVANVESKAPENIVSGNEKVVRPRLTDAEFFFKQDKKQPLESFNERLRNVVFQAQLGTVFEKAQRVSGLAAYIAERIGGNAQNASRAGILSKCDLATEMVGEFPEMQGIAGYYYATHGGEAEDVALALNEQYMPRGAGAELPSTLTGAAVAVADKLDTLVGIFGIGMLPTGSKDPYALRRAALGVLRILIEKQLDLDLVAAVNAAVEQYGDKVKAAGLAEQVLDFVFDRLRARYEDEGVDVAVYQSVRALKPSSPLDFDQRVQAVQAFRQLPEAEALAAANKRVSNILAKSEDEVPPNVDASLLVEAAEKALGSAVANAESEVAPLAAARDYRAALARLAALREPVDTFFADVMVNVDDAAVRANRYALLAKLRGSFLGVADIS | not soluble |
| MGSDKIHHHHHHMRITSIFLFTIIIFGGLSCSNDDSLIHNKTKGILEKYPEPTVTITAHNHIPFLAKNILEEKAITKSVNIISDIAWANGFGRTITARSDEMVIPDNMNRYIYPGSILEASSIAETRFTPIPVKNNPVHVSVSFPAKKVGGTIKEPSLLNIRQFVMDLMQQNNIGKQSATLSFDVQKFVSYDELKMTFGSNENTGLLFWGTSSAQYQNKYRIIRSSGLCIKFIQKYFTLDMDIPSNGLISGTIPGGYSPVYVSSIAYGRIGILTLETNYDYEKANKLVKETFNSLFINKNNTLTKEQEAFFNSAEMKVFIAGGSGVTGVKTIGGIKEFTNYITEGGEFSASSPGKPIFCSFANYSDDSPYRINFKIDIDSDPVYARLEYDITKDVSGGNVKSWYTDANVYLRFYADKACSIKTIAQNYIGFNINRLILQQYVGPNYSVSKAREVKLDQNLTFHNQTKGIEYPIAYGHRMTETIGTTYLDRGNWTNDHFYLRAGKFYQVRPPINMKYTCFIDYHNQNEYDCSDFE | not soluble |
| MGSDKIHHHHHHMDYWEKADYSWSDDSKRHILTPSSKSRTLFYYIQEIGQFKASRPYYTERAHLPSYLIKFTLNGTGELRYRYHTYSLQRGDLFFIDCRDYQYYQATSEDPWEMDWIHFEGGNSGAFFQEFMKNGSPVFSTNQLPEDNPIHLIIQQLLQLQDLQHAQTDYQSSVLIHQLLNELLLQKYRQDFTYETIPSLVLEMKAYIDQHFKETISLEDLAQLFHLNKYQLNKEFSKYIGLPPIKYQISKKISYSKDLLRYSNQTVKEIAVDVGLENYAYFSRLFKKRTGLTPSQYRKSGF | not soluble |
| MVFPSEQEQIEKFEKDHVAQHYFEVLRTLISKKSVFAQQVGLKEVANYLGEIFKRVGAEVEIDESYTAPFVMAHFKSSRPDAKTLIFYNHYDTVPADGDQVWTEDPFTLSVRNGFMYGRGVDDDKGHITARLSALRKYMQHHDDLPVNISFIMEGAEESASTDLDKYLEKHADKLRGADLLVWEQGTKNALEQLEISGGNKGIVTFDAKVKSADVDIHSSYGGVVESAPWYLLQALQSLRAADGRILVEGLYEEVQEPNEREMALLETYGQRNPEEVSRIYGLELPLLQEERMAFLKRFFFDPALNIEGIQSGYQGQGVKTILPAEASAKLEVRLVPGLEPHDVLEKIRKQLDKNGFDKVELYYTLGEMSYRSDMSAPAILNVIELAKKFYPQGVSVLPTTAGTGPMHTVFDALEVPMVAFGLGNANSRDHGGDENVRIADYYTHIELVEELIRSYE | soluble |
| LVDGSLCELRYSWAKIDTYQHVNNFITLNQVKIALAQSRCHNHHLDSTTITVWYDSAFSVMRDLKGIGANHVSGRSHGLTSRRTLLQVERAYQAFKNDQGLLPATYQVCFGVIHL | not soluble |
| MAHHHHHHMSAEQQRLKKMHCEAVTLAEMKQWLGLPLTTAASSSSAAPAAAAVAAAPKSPVEEAVGRDVYDMYGLSMTAVDAYLLRYLRSKNLVIEDAVAKLRRRRAFERTLPMISVTTTTVAALRSGAFHLLDHDLEGRPVLYINVATFTLPTLELDEAQRLLIILLEFMQARCLLKNNEKVAAMQRRRRQHVDATAAASSFANGGRENNGGAAAPAHGAQDVDKETVSDLQEFALLVNEERVPWMMHASFLKNYSTLLSILPKYYPLLLGSVLVLGASLEIRTAIKACVGSSSEDVRNSVQMIEKADLPRYMDASTIPVELGGHKQIVGSAMNFSETVLRHWFTLTSQIEDECVGSDGGIADSKVPTTISAAGAANGHREDGGGAETSHSPPRPLYVPPPPLGMTQRHISRQRHAVELQHLSSSVVGTITGPGSPGPMRPCKYGGSSARNGKHSLMSSAAAANRSTAVTTPHGTPTSQKDQAAATVTLGAGRAEDVTDDGVCSALSGADERDDYAENEGGGAGMHTRTNSGVPTYQLYTAASSLAGSLAVEGEMHLSGLGASHNRHHQGASLYSVASATISREEAAHFADHPDDAVVALRQERRRRQRAEQALYFRDLGVTLDMRNASIIEKELAAIHQDLNVLVAEILVKAEAARKRQKAPPTLKQLLDLTLTAFESVTCTPSSVPAMALAEPAQREAASSSCCSFM | not soluble |
| MSDSWTERWNDRYSNEIFAYGEKPNNYLKAQLENLQPGTILFAAEGEGRNAVFAACLGWDVQAFDISSEGKKKAFQLAEKNQVTIAYQVGQLETLGYTAGQFDALALIYAHFPATVKSAYHRILSSYVRSGGYIIFEAFSKKHLDYLAKNEQVGGPKEFDMLFSIEEIKADFPDYEILELEEKEIELNEGQFHNGTGSVIRFTGRKKLEHHHHHH | not soluble |
| MGSDKIHHHHHHMLVPMSEGDTSELDHDADHLAEGDERYLLRNKRQIRGLLQQLIDQRAVVTMHVAGRDMAVPTAVLEVDEDDDCVILDGSHNDASNRAIEQAKYLLCYAQLERVNIRFRLETPERLERDIHVAFRATLPDSLYHLQRRESYRLETPITDSPTCTIRQDAASGGNLNLQLRVIDISSGGLAVSLTTGMPLLDPQHTYRDCTLQLPDSAPIALPLTVCSQYKMTLPNGSEGFRVGMQFSDLPRGADETIQRYIFRVDRQRNARKSGVF | not soluble |
| MAHHHHHHMGGFGSKNMEYYNYASMKLLERDKYTNEKEEEEDDQYCKETDIREAVKKAREIRNCNYKESMDLYIKALKMLKKLKENNSRIYRNVLEFEIRPQEIASSAPLNTSLEKNIHMKKEGETNYTCAPPNDNQAISLNNKIASLYNEIADLCCIHDFIEKSLFYYDKACSYNPSKIDYIYKKGVLFQQMNDTERAINTFKIILSAEPNHIPTLFSLGNLYRYIDNHIALSYFEAILKIEPNNTEVLSLIASCYDNLGKLNEAISYQNKAVQIDPDNFNHKKFAQRLIEMKSQN | soluble |
| MSLDSISLHKIFYKVLKNNTLPECQVIAAEGLCKLYLADIFNDDDLFETLILSYFSPSNSSNEGLIQAFAFCIPVYSYSHVLHQQRITKIASDVLLRLYMLWVDFQANEETDENIETMLKPNVILQQLISWTDPRKLIGENEKAINDNYQLNFLLDIFQQFPKFDKKNIKKMILTNINAFYVSSDNDMHKLREIKEHLEDIIENEIIDTMTLNSLEKFKNTIIDCLEEAKEKSENQTKDEIESSDGEYSMILESSNIGNISDVEKDVNVEAAQFSDSENDFEDSDDDTSRKRNRSKLEESIANNTSEKLSVNEDYDSEDTNEPKNDAKDINEPEDGTKDVIMEDSVSSNVIENSKNVSFILPDNDYSSSESSMSVDDESYKEEGHHHHHH | soluble |
| MSMLSMDGIVAGGGSSSGGGERSFVLEQKMFNTGPQNKALPTVQSSGSSSNHAPIVGESPLGTVSSTMATGDTGRVGNVTYMSSGMLGATQFMPQNSSHPSTSVMMQQVPPQNGGATRSSPTEMQQCMQAMSEDSIEMRDYNSGVHHMHPHQMQMQQQQQHHQQQYNMSYHNHQQQMQQMHYHQQQQQYQQQQAQHHQMYAPQIQQQQQQPQQQSQQQSAQQPQQSSAALQHVNESSNLSSAGSISDREPEQHGGTPQRPTAPQSSTATDKKTRKRRKAGPTEDQATPKQERKITEFMKVGGEVASGNSVARCLLTEYHQNQGSPKRQPAVQQNGSNSYDSQQQQPQMNQHEMQNSYWGVATPSLGVNNRGTPTPTQQQHYSSDSNSNSNQSPPGQGNQSGRMVRTIDEETQTDSSLSQANPQNADEVAKMNRIIEDHRRQIEELNSKNSLERRKNEASKETIKRLLIDKNQIERKALRDKTAADSPRIGCFKTTRTGDSFRDQWVDGWAFAEMDKKTEQINAERNEIASASALLKKRKPLGIGKEPKRPQAVNSQNDSNGMQPSTSSNTNGDDAIFRRPEEPKEIQYQEYIELDEIYKLRREHLRKEETDLSMEKERLEKEKQHHVRELKRASNESASQFNDHRLLHKRYLMLNLLGKGGFSEVWKAFDIEENRYVACKIHHVNKDWKEEKKANYVKHAMREKDIHKSLDHCRIVKQYDLLTIDNHSFCTVLEYVPGNDLDFYLKQNRSISEKEARSIIMQVVSALVYLNEKSTPIIHYDLKPANILLESGNTSGAIKITDFGLSKIMEGESDDHDLGIELTSQFAGTYWYLPPETFIVPPPKITCKVDVWSIGVIFYQCIYGKKPFGNDLTQQKILEYNTIINAREVSFPSKPQVSSAAQDFIRRCLQYRKEDRADVFELAKHELFRPRGAIRASVAGSVSSPSIPRSPSVNREDDNM | not soluble |
| MGSDKIHHHHHHMDWTNIPPLYALKAFESAAKHQSFTLAASELFISQSAISKHINTIEIFFGRKLFYRKGPKVFLTKEGESFAGDLRHAFEILSKACENIHRAGIVLTISSPYTFSIRQFIPVLRKYKNQDGFPIVTVETINDDYSHSIVNLKNHDATVKYGDGKFSDEWNCTLLSPECLIVVVSPKLLHLFEKDNRILIDLVYVKSRELDWFSWCEESRLKERFQVINKYEFESMDSAINAVIKGLGVAVVDIGMVCDELMDGVLLTPFKFSFYSGRGYYFLRGGDDDNYLSSLLECVRLDLSGRGLAELCFNDKCDMGNCRLAATKKITK | not soluble |
| MTRRDNEERVLHAATDTEQSQVTDLRQNVSATPLTDAEVGRLQLLEERATVQVERQGIGQVQVRKVVRERQEMVPVTLTTEVLEIVVTPAAQGTGAQNVGDTQTAAASAAGTTGNGGVSQVLIDGKPLEAGQTYEIPLTEERVQVMRQVVPLSEVVVRRQAQATTHEETVTLRREELEVLDEQGLARIVDEGAALEHHHHHH | soluble |
